In US20200115422A1 (OXFORD UNIVERSITY INNOVATION, published 2020):

T1: biotinylated SnoopLigase (biotin on the AP peptide (BirA biotinylation))
T1 construct: Captured or immobilised on streptavidin-agarose in the elution experiments; also called Biotin-SnoopLigase; biotin-SnoopLigase; not shown: N-terminal His6-tag and flexible GS-rich linker; AP, substrate peptide for BirA biotinylation
T1 chain: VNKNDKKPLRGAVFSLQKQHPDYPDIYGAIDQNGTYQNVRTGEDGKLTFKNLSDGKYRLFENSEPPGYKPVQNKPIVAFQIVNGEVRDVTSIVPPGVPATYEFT

B1: SnoopTagJr:DogTag competitor peptide (peptide)
peptide 1: KLGSIEFIKVNK
peptide 2: DIPATYEFTDGKHYITNEPIPPK
modifications: not fully specified; Asn 17 joined by an isopeptide bond to Lys 9 of SnoopTagJr; Lys 9 joined by an isopeptide bond to Asn 17 of DogTag
notes: Made from SUMO-DogTag and synthetic SnoopTagJr peptide with immobilised HaloTag7-SnoopLigase, then cut from SUMO by Ulp1; also called SnoopTagJr:DogTag peptide conjugate; DogTag:SnoopTagJr peptide

Columns and labels:
[1] = target: MBP-DogTag; assay: cell-based or functional assay
[2] = target: AffiHER2-DogTag; assay: cell-based or functional assay
[3] = target: DogTag-mClover3; assay: cell-based or functional assay
[4] = target: SUMO-DogTag; assay: cell-based or functional assay
[5] = target: DogTag-HaloTag7SS fusion protein; assay: cell-based or functional assay
[6] = target: IMX-DogTag; assay: cell-based or functional assay
[7] = target: T1, biotinylated SnoopLigase; assay: competition elution at 37 °C from biotin-SnoopLigase on streptavidin-agarose; SDS-PAGE

Row | Molecule | Percentage of DogTag partner reacted [1] [%] | Percentage of DogTag partner reacted [2] [%] | Percentage of SnoopTagJr partner reacted [2] [%] | Percentage of DogTag partner reacted [3] [%] | Percentage of SnoopTagJr partner reacted [3] [%] | Percentage of DogTag partner reacted [4] [%] | Percentage of SnoopTagJr partner reacted [4] [%] | Percentage of SnoopTagJr partner reacted [1] [%] | reaction yield [5] [%] | reaction yield [4] [%] | reaction yield [6] [%] | binding result [7]
1 | HaloTag7SS-SnoopTagJr | 97 | 100 | 99.3 | 96.1 | 98 | 99.7 | 99 |  |  |  |  | 
2 | MBP-SnoopTagJr | 95 | 100 | 93.3 | 85.4 | 79.5 | 99 | 99.1 |  |  |  |  | 
3 | SnoopTagJr-AffiHER2 | 98.4 | 99.9 | 100 | 94 | 99.8 | 99.9 | 99.9 | 100 | 90 | 99 |  | 
4 | SnoopTagJr-MBP |  |  |  |  |  |  |  |  |  |  | 96 | 
5 | SnoopTagJr-mEGFP | 87.8 | 99.9 | 99.9 | 82.3 | 89.4 | 99.1 | 100 | 99.7 |  |  |  | 
6 | B1 |  |  |  |  |  |  |  |  |  |  |  | binds
